44 molecules from US20190359693A1 can be followed below.

Changes are numbered by the printed parent chain.

B1: SD3049 (VHH)
VHH: EVQLVESGGGLVQPGGSLRLSCAASGLSLDTYAMSWFRQAPGKEREGVSCISSGHGMTYYADSVKGRFTISRDNSKNTLYLQMNSLQPEDTARYYCATESRYYCSDNWPAPQRYIYWGQGTQVTVSS
B2: SD3073 (VHH)
VHH: B1 VHH with A24I, M34V, S35G, I70V, R72T, Q87R, P88A, R93V, Q122L
B3: SD3076 (VHH)
VHH: B1 VHH with M34V, S35G, M57L, R72T, Q87R, P88A, R93V, Q122L
B4: SD3100 (VHH)
VHH: B1 VHH with A24I, M34V, S35G, M57A, R72T, Q87R, P88A, R93V, Q122L
B5: SD3054 (VHH)
VHH: B1 VHH with V48I, S49T, M57I
B6: SD3056 (VHH)
VHH: B1 VHH with V48I, S49T, M57F
B7: SD3104 (VHH)
VHH: B1 VHH with A24I, M34V, S35G, M57N, R72T, Q87R, P88A, R93V, Q122L
B8: SD3101 (VHH)
VHH: B1 VHH with A24I, M34V, S35G, M57S, R72T, Q87R, P88A, R93V, Q122L
B9: SD3102 (VHH)
VHH: B1 VHH with A24I, M34V, S35G, M57Q, R72T, Q87R, P88A, R93V, Q122L
B10: SD3075 (VHH)
VHH: B1 VHH with M34V, S35G, M57I, R72T, Q87R, P88A, R93V, Q122L
B11: SD3053 (VHH)
VHH: B1 VHH with M57F
B12: SD3050 (VHH)
VHH: B1 VHH with V48I, S49T
B13: SD3074 (VHH)
VHH: B1 VHH with A24I, M34V, S35G, V48I, S49T, R72T, Q87R, P88A, R93V, Q122L
B14: SD3052 (VHH)
VHH: B1 VHH with M57L
B15: SD3051 (VHH)
VHH: B1 VHH with M57I
B16: SD3055 (VHH)
VHH: B1 VHH with V48I, S49T, M57L
B17: SD3103 (VHH)
VHH: B1 VHH with A24I, M34V, S35G, M57D, R72T, Q87R, P88A, R93V, Q122L
B18: SD3072 (VHH)
VHH: B1 VHH with M34V, S35G, V48I, S49T, I70V, R72T, Q87R, P88A, R93V, Q122L
B19: SD3007 (VHH)
VHH: EVQLLESGGGLVQPGGSLRLSCAASGFTLENKAIGWFRQAPGKEREGVSCISKSGSWTYYADSVKGRFTISRDNSKNTVYLQMNSLRAEDTAVYYCATTTAGGGLCWDGTTFSRLASSWGQGTQVTVSS
B20: SD3010 (VHH)
VHH: B19 VHH with S49L, V79L
B21: SD3011 (VHH)
VHH: B19 VHH with S49L
B22: SD3009 (VHH)
VHH: B19 VHH with I34M, G35S, S49L, V79L
B23: SD3012 (VHH)
VHH: B19 VHH with S49L, A88P
B24: SD3008 (VHH)
VHH: B19 VHH with A88P
B25: SD3069 (VHH)
VHH: EVQLVESGGGLVQPGGSLRLSCAISGLSLDTYAVGWFRQAPGKEREGITCISSGHGMTYYADSVKGRFTVSTDNSKNTLYLQMNSLRAEDTAVYYCATESRYYCSDNWPAPQRYIYWGQGTLVTVSS
B26: SD3071 (VHH)
VHH: B25 VHH with M57L
B27: SD3070 (VHH)
VHH: B25 VHH with M57I
B28: SD3001 (VHH)
VHH: EVQLVESGGGLVQPGGSLRLSCAASGFTFSTSWMSWLRQAPGKGLEWVSVINTDGGTYYADSVKGRFTISRDNSKNTLYLQMNSLRAEDTAVYYCAKDWGGPEPTRGQGTQVTVSS
B29: SD3003 (VHH)
VHH: B28 VHH with N76D
B30: SD3004 (VHH)
VHH: B28 VHH with S35Y, N76D
B31: SD3002 (VHH)
VHH: B28 VHH with S35Y
B32: SD3023 (VHH)
VHH: EVQLLESGGGLVQAGGSLRLSCAASGRTYAMSWFRQAPGKEREFVSHINALGTRTYYADSVKGRFTISRDNSKNTLYLQMNSLRPEDTAVYYCTAQGQWRAAPVAVAAEYEFWGQGTQVTVSS
B33: SD3024 (VHH)
VHH: B32 VHH with A14P, P85A
B34: SD3025 (VHH)
VHH: B32 VHH with A14P, S46A, P85A
B35: SD3041 (VHH)
VHH: EVQLVESGGGLVQPGGSLRLSCAASGRTLSIYSMSWFRQAPGKEREFVSAIGWNSGRTYYADSVKGRFTISRDNSKNTLYLQMNSLRAEDTAVYYCAAAKGPLRLSSQADYWGQGTQVTVSS
B36: SD3042 (VHH)
VHH: B35 VHH with A50T
B37: SD3044 (VHH)
VHH: B35 VHH with A50T, S75A, K76R
B38: SD3048 (VHH)
VHH: B35 VHH with P14A, A50T, S75A, K76R
B39: SD3045 (VHH)
VHH: B35 VHH with P14A
B40: SD3046 (VHH)
VHH: B35 VHH with P14A, A50T
B41: SD3047 (VHH)
VHH: B35 VHH with P14A, S49A, A50T
B42: SD3043 (VHH)
VHH: B35 VHH with S49A, A50T
B43: SD3088 (VHH)
VHH: B19 VHH with S49L, V79L, Q124L
B44: SD3086 (VHH)
VHH: B28 VHH with S35Y, L37V, Q111L

For one experiment, the target named is hemagglutinin (HA) of influenza B/Harbin/7/94 (Yamagata) (influenza B virus). As to the kind of experiment: cell-based or functional assay.
B1 came in with a VNA IC50 of over 1000 nM.
For B2, the VNA IC50 was over 1000 nM.
Same read-out and setting: the result for B3 reads over 1000 nM; that for B4, over 1000 nM.
Still for that read-out and setting: the same measure for B5: over 1000 nM.
Turning to B6, the VNA IC50 is over 1000 nM.
The same measure, in the same setting: the result for B7 reads over 1000 nM.
For the molecule B8, the VNA IC50 is over 1000 nM.
In turn, B9 came in with a VNA IC50 of over 1000 nM.
Same read-out and setting: the same measure for B10: over 1000 nM; for B11: over 1000 nM.
Same read-out and setting: the result for B12 reads over 1000 nM; that for B13, over 1000 nM.
On the same count and under the same terms, the same measure for B14: over 1000 nM; for B15: over 1000 nM.
On to B16, for which the VNA IC50 is over 1000 nM.
The same measure, in the same setting: the same measure for B17: over 1000 nM; for B18: over 1000 nM; for B19: over 1000 nM.
With B20, the VNA IC50 stood at 173 nM.
On the same count and under the same terms, the result for B21 reads 96 nM; that for B22, 516 nM; that for B23, 78 nM.
Still for that read-out and setting: the result for B24 reads over 1000 nM; that for B25, over 1000 nM; that for B26, over 1000 nM.
Molecule B27 yielded a VNA IC50 of over 1000 nM.
B28 came in with a VNA IC50 of over 1000 nM.
B29 yielded a VNA IC50 of over 1000 nM.
Same read-out and setting: the same measure for B30: 101 nM; for B31: 137 nM.

For a further experiment, the target named is hemagglutinin (HA) of influenza A/Brisbane/10/07 (H3N2) (influenza A virus A/Brisbane/10/07 (H3N2)). Nature of the experiment: cell-based or functional assay.
As to B32, the VNA IC50 came to 64 nM.
In turn, B33 registered a VNA IC50 of 80 nM.
The same measure, in the same setting: the result for B34 reads 160 nM.

A further experiment deals with hemagglutinin (HA) of influenza A/New York/107/03 (PR8) (influenza A virus A/New York/107/03 (PR8)). Nature of the experiment: cell-based or functional assay.
B32 came in with a VNA IC50 of 16 nM.
In turn, B33 displayed a VNA IC50 of 20 nM.
The molecule B34 displayed a VNA IC50 of 13 nM.
As for B35, the VNA IC50 is over 1000 nM.
Take B36: the VNA IC50 is over 1000 nM.
Still for that read-out and setting: the result for B37 reads over 1000 nM.
Consider B38, for which the VNA IC50 was determined as 858 nM.
As for B39, the VNA IC50 is over 1000 nM.
In turn, B40 came in with a VNA IC50 of over 1000 nM.
On the same count and under the same terms, the result for B41 reads over 1000 nM.
The molecule B42 displayed a VNA IC50 of over 1000 nM.

For the next experiment, the target named is hemagglutinin (HA) of influenza B/Lee/40 (Old) (influenza B virus) (UniProt P03460). Nature of the experiment: cell-based or functional assay.
hemagglutinin (HA) of influenza B/Lee/40 (Old) (influenza B virus), sequence (P03460 16-584 limits assumed): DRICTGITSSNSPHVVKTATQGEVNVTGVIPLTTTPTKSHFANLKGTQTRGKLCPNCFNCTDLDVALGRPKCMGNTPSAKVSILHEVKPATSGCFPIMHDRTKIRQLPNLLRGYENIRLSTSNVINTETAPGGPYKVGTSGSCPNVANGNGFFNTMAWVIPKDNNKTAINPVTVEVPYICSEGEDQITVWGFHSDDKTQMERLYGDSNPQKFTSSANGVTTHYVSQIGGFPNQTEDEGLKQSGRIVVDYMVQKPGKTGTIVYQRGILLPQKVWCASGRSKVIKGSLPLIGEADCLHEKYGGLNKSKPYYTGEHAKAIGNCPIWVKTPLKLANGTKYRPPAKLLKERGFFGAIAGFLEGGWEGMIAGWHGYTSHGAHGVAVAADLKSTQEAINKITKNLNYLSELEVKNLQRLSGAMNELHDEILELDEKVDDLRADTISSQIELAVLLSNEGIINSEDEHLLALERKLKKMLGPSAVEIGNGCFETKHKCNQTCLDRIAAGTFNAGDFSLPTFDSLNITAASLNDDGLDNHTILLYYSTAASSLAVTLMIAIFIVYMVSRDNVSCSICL
Regarding B2, the VNA IC50 was 59 nM.
The same measure, in the same setting: the same measure for B3: over 1000 nM; for B4: over 1000 nM; for B7: over 1000 nM.
Same read-out and setting: the result for B8 reads over 1000 nM; that for B9, over 1000 nM.
Same read-out and setting: the same measure for B10: over 1000 nM.
In turn, B13 registered a VNA IC50 of 42 nM.
Same read-out and setting: the result for B17 reads over 1000 nM.
Still for that read-out and setting: the result for B18 reads 318 nM.
Same read-out and setting: the same measure for B19: over 1000 nM; for B20: 227 nM.
B21: the VNA IC50 worked out at 59 nM.
Same read-out and setting: the same measure for B43: 127 nM; for B22: 372 nM; for B23: 60 nM.
In turn, B24 yielded a VNA IC50 of over 1000 nM.
On the same count and under the same terms, the result for B25 reads 67 nM.
In the case of B26, the VNA IC50 was over 1000 nM.
On to B27, for which the VNA IC50 was over 1000 nM.
As to B28, the VNA IC50 is over 1000 nM.
As to B29, the VNA IC50 was over 1000 nM.
In turn, B44 displayed a VNA IC50 of over 1000 nM.
In the case of B30, the VNA IC50 is over 1000 nM.
Regarding B31, the VNA IC50 is over 1000 nM.
